Kd data for 15 molecules are collected here from US20260308269 (published 2026).

By Kd is commonly meant a measure of binding affinity in units of concentration. Lower therefore signals tighter binding.

T1: human TfR apical domain (human)
T1 chain: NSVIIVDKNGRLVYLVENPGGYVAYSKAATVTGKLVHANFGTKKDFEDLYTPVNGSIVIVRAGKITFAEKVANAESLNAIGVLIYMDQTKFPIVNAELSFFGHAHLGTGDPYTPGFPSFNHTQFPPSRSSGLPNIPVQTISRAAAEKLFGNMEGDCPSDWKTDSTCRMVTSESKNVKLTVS

B1: 35.d1.12 (protein)
chain: ASTKGPSVFPLAPSSKSTSGGTAALGCLVKDYFPEPVTVSWNSGALTSGVHTFPAVLQSSGLYSLSSVVTVPSSSLGTQTYICNVNHKPSNTKVDKKVEPKSCDKTHTCPPCPAPELLGGPSVFLFPPKPKDTLMISRTPEVTCVVVDVSHEDPEVKFNWYVDGVEVHNAKTKPREEQYNSTYRVVSVLTVLHQDWLNGKEYKCKVSNKALPAPIEKTISKAKGQPREPQVYTLPPSRDELTKNQVSLTCLVKGFYPSDIAVEWESFGTEWSNYKTTPPVLDSDGSFFLYSKLTVSKSEWQQGFVFSCSVMHEALHNHYTQKSLSLSPELQLEESCAEAQDGELDGLWTT
B2: 35.d1.11 (protein)
chain: ASTKGPSVFPLAPSSKSTSGGTAALGCLVKDYFPEPVTVSWNSGALTSGVHTFPAVLQSSGLYSLSSVVTVPSSSLGTQTYICNVNHKPSNTKVDKKVEPKSCDKTHTCPPCPAPELLGGPSVFLFPPKPKDTLMISRTPEVTCVVVDVSHEDPEVKFNWYVDGVEVHNAKTKPREEQYNSTYRVVSVLTVLHQDWLNGKEYKCKVSNKALPAPIEKTISKAKGQPREPQVYTLPPSRDELTKNQVSLTCLVKGFYPSDIAVEWESYGTEWSNYKTTPPVLDSDGSFFLYSKLTVTKSEWQQGYVFSCSVMHEALHNHYTQKSLSLSPELQLEESCAEAQDGELDGLWTT
B3: 35.d1.4 (protein)
chain: ASTKGPSVFPLAPSSKSTSGGTAALGCLVKDYFPEPVTVSWNSGALTSGVHTFPAVLQSSGLYSLSSVVTVPSSSLGTQTYICNVNHKPSNTKVDKKVEPKSCDKTHTCPPCPAPELLGGPSVFLFPPKPKDTLMISRTPEVTCVVVDVSHEDPEVKFNWYVDGVEVHNAKTKPREEQYNSTYRVVSVLTVLHQDWLNGKEYKCKVSNKALPAPIEKTISKAKGQPREPQVYTLPPSRDELTKNQVSLTCLVKGFYPSDIAVEWESFGTEWSSYKTTPPVLDSDGSFFLYSKLTVSKSEWQQGFVFSCSVMHEALHNHYTQKSLSLSPELQLEESCAEAQDGELDGLWTT
B4: 35.d1.18 (protein)
chain: ASTKGPSVFPLAPSSKSTSGGTAALGCLVKDYFPEPVTVSWNSGALTSGVHTFPAVLQSSGLYSLSSVVTVPSSSLGTQTYICNVNHKPSNTKVDKKVEPKSCDKTHTCPPCPAPELLGGPSVFLFPPKPKDTLMISRTPEVTCVVVDVSHEDPEVKFNWYVDGVEVHNAKTKPREEQYNSTYRVVSVLTVLHQDWLNGKEYKCKVSNKALPAPIEKTISKAKGQPREPQVYTLPPSRDELTKNQVSLTCLVKGFYPSDIAVEWESFGTEWSNYKTTPPVLDSDGSFFLYSKLTVSKSEWQQGYVFSCSVMHEALHNHYTQKSLSLSPELQLEESCAEAQDGELDGLWTT
B5: 35.d1.20 (protein)
chain: ASTKGPSVFPLAPSSKSTSGGTAALGCLVKDYFPEPVTVSWNSGALTSGVHTFPAVLQSSGLYSLSSVVTVPSSSLGTQTYICNVNHKPSNTKVDKKVEPKSCDKTHTCPPCPAPELLGGPSVFLFPPKPKDTLMISRTPEVTCVVVDVSHEDPEVKFNWYVDGVEVHNAKTKPREEQYNSTYRVVSVLTVLHQDWLNGKEYKCKVSNKALPAPIEKTISKAKGQPREPQVYTLPPSRDELTKNQVSLTCLVKGFYPSDIAVEWESYGTEWVNYKTTPPVLDSDGSFFLYSKLTVSKSEWQQGFVFSCSVMHEALHNHYTQKSLSLSPELQLEESCAEAQDGELDGLWTT
B6: CH3C.1.35 (protein)
chain: ASTKGPSVFPLAPSSKSTSGGTAALGCLVKDYFPEPVTVSWNSGALTSGVHTFPAVLQSSGLYSLSSVVTVPSSSLGTQTYICNVNHKPSNTKVDKKVEPKSCDKTHTCPPCPAPELLGGPSVFLFPPKPKDTLMISRTPEVTCVVVDVSHEDPEVKFNWYVDGVEVHNAKTKPREEQYNSTYRVVSVLTVLHQDWLNGKEYKCKVSNKALPAPIEKTISKAKGQPREPQVYTLPPSRDELTKNQVSLTCLVKGFYPSDIAVEWESYGTEWSSYKTTPPVLDSDGSFFLYSKLTVTKSEWQQGFVFSCSVMHEALHNHYTQKSLSLSPELQLEESCAEAQDGELDGLWTT
B7: 35.d1.22 (protein)
chain: ASTKGPSVFPLAPSSKSTSGGTAALGCLVKDYFPEPVTVSWNSGALTSGVHTFPAVLQSSGLYSLSSVVTVPSSSLGTQTYICNVNHKPSNTKVDKKVEPKSCDKTHTCPPCPAPELLGGPSVFLFPPKPKDTLMISRTPEVTCVVVDVSHEDPEVKFNWYVDGVEVHNAKTKPREEQYNSTYRVVSVLTVLHQDWLNGKEYKCKVSNKALPAPIEKTISKAKGQPREPQVYTLPPSRDELTKNQVSLTCLVKGFYPSDIAVEWESYGNEWSNYKTTPPVLDSDGSFFLYSKLTVSKEEWQQGFVFSCSVMHEALHNHYTQKSLSLSPELQLEESCAEAQDGELDGLWTT
B8: 35.d1.24 (protein)
chain: ASTKGPSVFPLAPSSKSTSGGTAALGCLVKDYFPEPVTVSWNSGALTSGVHTFPAVLQSSGLYSLSSVVTVPSSSLGTQTYICNVNHKPSNTKVDKKVEPKSCDKTHTCPPCPAPELLGGPSVFLFPPKPKDTLMISRTPEVTCVVVDVSHEDPEVKFNWYVDGVEVHNAKTKPREEQYNSTYRVVSVLTVLHQDWLNGKEYKCKVSNKALPAPIEKTISKAKGQPREPQVYTLPPSRDELTKNQVSLTCLVKGFYPSDIAVEWESYGTEWSNYKTTPPVLDSDGSFFLYSKLTVSKEEWQQGYVFSCSVMHEALHNHYTQKSLSLSPELQLEESCAEAQDGELDGLWTT
B9: 35.d1.14 (protein)
chain: ASTKGPSVFPLAPSSKSTSGGTAALGCLVKDYFPEPVTVSWNSGALTSGVHTFPAVLQSSGLYSLSSVVTVPSSSLGTQTYICNVNHKPSNTKVDKKVEPKSCDKTHTCPPCPAPELLGGPSVFLFPPKPKDTLMISRTPEVTCVVVDVSHEDPEVKFNWYVDGVEVHNAKTKPREEQYNSTYRVVSVLTVLHQDWLNGKEYKCKVSNKALPAPIEKTISKAKGQPREPQVYTLPPSRDELTKNQVSLTCLVKGFYPSDIAVEWESYGTEWTNYKTTPPVLDSDGSFFLYSKLTVSKSEWQQGFVFSCSVMHEALHNHYTQKSLSLSPELQLEESCAEAQDGELDGLWTT
B10: 35.d1.19 (protein)
chain: ASTKGPSVFPLAPSSKSTSGGTAALGCLVKDYFPEPVTVSWNSGALTSGVHTFPAVLQSSGLYSLSSVVTVPSSSLGTQTYICNVNHKPSNTKVDKKVEPKSCDKTHTCPPCPAPELLGGPSVFLFPPKPKDTLMISRTPEVTCVVVDVSHEDPEVKFNWYVDGVEVHNAKTKPREEQYNSTYRVVSVLTVLHQDWLNGKEYKCKVSNKALPAPIEKTISKAKGQPREPQVYTLPPSRDELTKNQVSLTCLVKGFYPSDIAVEWESFGTEWVNYKTTPPVLDSDGSFFLYSKLTVSKSEWQQGYVFSCSVMHEALHNHYTQKSLSLSPELQLEESCAEAQDGELDGLWTT
B11: 35.d1.13 (protein)
chain: ASTKGPSVFPLAPSSKSTSGGTAALGCLVKDYFPEPVTVSWNSGALTSGVHTFPAVLQSSGLYSLSSVVTVPSSSLGTQTYICNVNHKPSNTKVDKKVEPKSCDKTHTCPPCPAPELLGGPSVFLFPPKPKDTLMISRTPEVTCVVVDVSHEDPEVKFNWYVDGVEVHNAKTKPREEQYNSTYRVVSVLTVLHQDWLNGKEYKCKVSNKALPAPIEKTISKAKGQPREPQVYTLPPSRDELTKNQVSLTCLVKGFYPSDIAVEWESYGNEWSNYKTTPPVLDSDGSFFLYSKLTVSKSEWQQGFVFSCSVMHEALHNHYTQKSLSLSPELQLEESCAEAQDGELDGLWTT
B12: 35.d1.21 (protein)
chain: ASTKGPSVFPLAPSSKSTSGGTAALGCLVKDYFPEPVTVSWNSGALTSGVHTFPAVLQSSGLYSLSSVVTVPSSSLGTQTYICNVNHKPSNTKVDKKVEPKSCDKTHTCPPCPAPELLGGPSVFLFPPKPKDTLMISRTPEVTCVVVDVSHEDPEVKFNWYVDGVEVHNAKTKPREEQYNSTYRVVSVLTVLHQDWLNGKEYKCKVSNKALPAPIEKTISKAKGQPREPQVYTLPPSRDELTKNQVSLTCLVKGFYPSDIAVEWESYGTEWVNYKTTPPVLDSDGSFFLYSKLTVSKSEWQQGYVFSCSVMHEALHNHYTQKSLSLSPELQLEESCAEAQDGELDGLWTT
B13: 35.d1.8 (protein)
chain: ASTKGPSVFPLAPSSKSTSGGTAALGCLVKDYFPEPVTVSWNSGALTSGVHTFPAVLQSSGLYSLSSVVTVPSSSLGTQTYICNVNHKPSNTKVDKKVEPKSCDKTHTCPPCPAPELLGGPSVFLFPPKPKDTLMISRTPEVTCVVVDVSHEDPEVKFNWYVDGVEVHNAKTKPREEQYNSTYRVVSVLTVLHQDWLNGKEYKCKVSNKALPAPIEKTISKAKGQPREPQVYTLPPSRDELTKNQVSLTCLVKGFYPSDIAVEWESYGNEWSNYKTTPPVLDSDGSFFLYSKLTVTKSEWQQGFVFSCSVMHEALHNHYTQKSLSLSPELQLEESCAEAQDGELDGLWTT
B14: 35.d1.17 (protein)
chain: ASTKGPSVFPLAPSSKSTSGGTAALGCLVKDYFPEPVTVSWNSGALTSGVHTFPAVLQSSGLYSLSSVVTVPSSSLGTQTYICNVNHKPSNTKVDKKVEPKSCDKTHTCPPCPAPELLGGPSVFLFPPKPKDTLMISRTPEVTCVVVDVSHEDPEVKFNWYVDGVEVHNAKTKPREEQYNSTYRVVSVLTVLHQDWLNGKEYKCKVSNKALPAPIEKTISKAKGQPREPQVYTLPPSRDELTKNQVSLTCLVKGFYPSDIAVEWESFGTEWTNYKTTPPVLDSDGSFFLYSKLTVSKSEWQQGFVFSCSVMHEALHNHYTQKSLSLSPELQLEESCAEAQDGELDGLWTT
B15: 35.d1.7 (protein)
chain: ASTKGPSVFPLAPSSKSTSGGTAALGCLVKDYFPEPVTVSWNSGALTSGVHTFPAVLQSSGLYSLSSVVTVPSSSLGTQTYICNVNHKPSNTKVDKKVEPKSCDKTHTCPPCPAPELLGGPSVFLFPPKPKDTLMISRTPEVTCVVVDVSHEDPEVKFNWYVDGVEVHNAKTKPREEQYNSTYRVVSVLTVLHQDWLNGKEYKCKVSNKALPAPIEKTISKAKGQPREPQVYTLPPSRDELTKNQVSLTCLVKGFYPSDIAVEWESYGTEWSSYKTTPPVLDSDGSFFLYSKLTVSKSEWQQGYVFSCSVMHEALHNHYTQKSLSLSPELQLEESCAEAQDGELDGLWTT

The target in the test is T1, human TfR apical domain. Description: SPR. (In general: SPR reads the build-up and loss of mass on a sensor chip optically.)
Regarding B1, the Kd was 1.6 µM.
Under B2 stands 2.5 µM.
Under B3 stands 1.4 µM.
Then B4, with 4.4 µM; and B5, with 3.6 µM; and B6, with 0.61 µM.
B7 showed a Kd of 5.2 µM.
Then B8, with 1.1 µM; and B9, with 11.7 µM; and B10, with 16 µM.
Under B11 stands 18.5 µM; under B12, 14.1 µM; under B13, 13.2 µM.
Then B14, with 18.8 µM; and B15, with 3 µM.
